Source: patent US20050100897A1, “NFAT transcription factors in tumor progression” (priority 2002, published 2005)

Experiments:
Type in all cases: cell-based, human
[1] = tested on: NFAT-5 transcriptional activity; test: NFAT-5-luc luciferase reporter assay in MDA-MB-435 β4+ (3A7) cells; settings: co-transfected with dominant negative NFAT-5 (GFP-ND5)
Procedure: FIGS. 4A-4D are graphs showing that NFAT-5 transcriptional activity is induced in an α6β4-dependent manner. FIG. 4A is a graph showing NFAT-5 transcriptional activity in control parental cells, β4 (3A7), and β4.ΔCYT (3C12) MDA-MB-435 transfectants that were transiently transfected with NFAT-5-luc. The cells were grown in complete media for twenty-four hours, trypsinized, incubated with anti-α6 (clone 135-13C) for 30 minutes, then plated onto secondary antibody-coated plates, either in the presence (+) or absence (−) of NIH 3T3 conditioned medium (CM), for twenty-four hours. As a positive control, cells were also stimulated with PMA (phorbol 12-myristate 13-acetate) and ionomycin (100 nM each) for twenty-four hours. Following stimulation, cells were lysed and NFAT-5 transcriptional activity was assayed. […] NFAT-5 transcriptional activity was measured as described above. […] NFAT-5 transcriptional activity was measured as described above. […]
Cells were transiently co-transfected with an NFAT luciferase reporter construct (NFAT-luc, 10 μg) and 1 μg pCS2-(n)β-gal using the Lipofectamine procedure (Life Technologies). Twenty-four hours after the transfection, luciferase and beta-galactosidase assays were performed using standard assays on total cell lysates and measured on a luminometer. […]

MDA-MB-231 cells = test: Matrigel chemoinvasion assay, MDA-MB-231 cells; settings: transient transfection
Text: FIGS. 3A-3C show the role of NFAT-5 in mediating carcinoma invasion. FIG. 3A is a graph showing luciferase levels in MDA-MB-435 cells expressing vector alone, β4.ΔCYT (3C12), or wild-type β4^+ (3A7 clone) that were transiently transfected with an NFAT-5-luciferase reporter construct (NFAT-5-luc). Luciferase activity is shown as relative luciferase units. […] The lysates were resolved by SDS PAGE and immunoblotted with anti-NFAT-5 (α-NFAT-5, top panel) or anti-p85 (α-p85, bottom panel) The position of the 175 kDa and 90 kDa markers are indicated (left). […] The ability of the transfected cells to invade Matrigel was then assayed and the data are shown as the relative invasion of NFAT-5-transfected cells compared to vector alone-transfected cells (100%).
Invasion assays were performed using standard methods (see Shaw et al., Cell 91:949-960, 1997) using Transwell chambers coated with Matrigel. […] Cells that stained positive for β-galactosidase expression were counted, and the mean of triplicate assays for each experimental condition was used as % relative invasion. […]

[2] = tested on: Clone A colon cancer cell line; test: Matrigel chemoinvasion assay, Clone A cells; settings: transient transfection
Procedure: (§1) Invasion assays were performed using standard methods (see Shaw et al., Cell 91:949-960, 1997) using Transwell chambers coated with Matrigel. Briefly, cells were co-transfected with the indicated NFAT constructs, 1 μg EGFP-N1 (Clontech) and 1 μg pCS2-(n)β-Gal, a •gal expression vector (Dave Turner, University of Michigan) using the Lipofectamine procedure (Life Technologies), and after twenty-four hours, the cells were resuspended in serum-free medium containing 0.1% bovine serum albumin (BSA) and added to each well. […] Cells that stained positive for β-galactosidase expression were counted, and the mean of triplicate assays for each experimental condition was used as % relative invasion.

[3] = tested on: MDA-MB-435 β4+-expressing cells (3A7); test: Matrigel chemoinvasion assay, MDA-MB-435 β4+ transfectants; settings: transient transfection; NIH 3T3 conditioned media as chemoattractant
Procedure: Following the transfection protocol, the ability of the transfected cells to invade Matrigel was assayed. The data are shown as the relative invasion of NFAT transfected cells compared to vector alone-transfected cells (100%). The data shown are mean values (±SEM) of 2 experiments performed in triplicate.
as §1

B1: ND5: dominant negative NFAT-5 mutant, amino acids 1-471 (SEQ ID NO:17) of NFAT5a; blocks dimerization of endogenous NFAT-5 (protein, listed as Homo sapiens)
chain: MGGACSSFTTSSSPTIYSTSVTDSKAMQVESCSSAVGVSNRGVSEKQLTSNTVQQHPSTPKRHTVLYISPPPEDLLDNSRMSCQDEGCGLESEQSCSMWMEDSPSNFSNMSTSSYNDNTEVPRKSRKRNPKQRPGVKRRDCEESNMDIFDADSAKAPHYVLSQLTTDNKGNSKAGNGTLENQKGTGVKKSPMLCGQYPVKSEGKELKIVVQPETQHRARYLTEGSRGSVKDRTQQGFPTVKLEGHNEPVVLQVFVGNDSGRVKPHGFYQACRVTGRNTTPCKEVDIEGTTVIEVGLDPSNNMTLAVDCVGILKLRNADVEARIGIAGSKKKSTRARLVFRVNIMRKDGSTLTLQTPSSPILCTQPAGVPEILKKSLHSCSVKGEEEVFLIGKNFLKGTKVIFQENVSDENSWKSEAEIDMELFHQNHLIVKVPPYHDQHITLPVSVGIYVVTNAGRSHDVQPFTYTPDPAA
- co-stimulated NFAT-5 transcriptional activity (α6β4 + conditioned media, or PMA/ionomycin) [1]: inhibited
- carcinoma invasion (relative invasion vs vector alone) (MDA-MB-231 cells): significantly inhibited invasion
- carcinoma invasion (relative invasion vs vector alone) [2]: significantly inhibited invasion
- carcinoma invasion (relative invasion vs vector alone) [3]: significantly inhibited invasion
